Laboratory results: paper PMC5180416 (Journal of the American Chemical Society, 2012)
Like-named read-outs stand apart in the source and are kept apart here. One block for each binder: values may come before it. Square brackets hold non-standard residues; d marks the D form. ACPC = not defined here; Ac3c = NC1(C(=O)O)CC1

How the values were obtained:
[1] = biological target: T1, WDR5 (WD (Trp-Asp) repeat domain 5) (UniProt P61964 1-334); assay: fluorescence polarisation
[2] = biological target: T1, WDR5 (WD (Trp-Asp) repeat domain 5); assay: fluorescence polarisation; remark: listed apart in the source

Ki [1]: 60 nM
B1: ACPC-RV (peptide)
chain: Ac-[Ac3c]-Arg-Val-NH2

Ki [2]: 600 nM
B2: VR-ACPC (peptide)
chain: Ac-Val-Arg-[ACPC]-NH2
modifications: reading uncertain
